The values that follow come from paper PMC8213676, “OsJAZ11 regulates phosphate starvation responses in rice”.

The target of this series is OsPHR2-6XHIS (Oryza sativa, UniProt Q6Z156 1-426). Briefly: EMSA; 0.7 ug protein, 50 ng probe; 15 mM HEPES pH 8.0, 30 mM KCl, 1 mM MgCl2, 0.2 mM EDTA, 0.02 mM DTT, 0.6% glycerol, 1 ug poly(dI-dC) in 20 ul, 20 °C 30 min (1 h with 15 mM NaH2PO4 for inhibition assay); gel 0.5X TBE at 4 °C. The following applies: protein: recombinant; tags: 6xHis (pET28a); chain copies: 2; label: DIG 3' end; blunt. A general note: Mobility shift assays separate free from complexed probe on a gel.
Chain of OsPHR2-6XHIS (Q6Z156 whole entry): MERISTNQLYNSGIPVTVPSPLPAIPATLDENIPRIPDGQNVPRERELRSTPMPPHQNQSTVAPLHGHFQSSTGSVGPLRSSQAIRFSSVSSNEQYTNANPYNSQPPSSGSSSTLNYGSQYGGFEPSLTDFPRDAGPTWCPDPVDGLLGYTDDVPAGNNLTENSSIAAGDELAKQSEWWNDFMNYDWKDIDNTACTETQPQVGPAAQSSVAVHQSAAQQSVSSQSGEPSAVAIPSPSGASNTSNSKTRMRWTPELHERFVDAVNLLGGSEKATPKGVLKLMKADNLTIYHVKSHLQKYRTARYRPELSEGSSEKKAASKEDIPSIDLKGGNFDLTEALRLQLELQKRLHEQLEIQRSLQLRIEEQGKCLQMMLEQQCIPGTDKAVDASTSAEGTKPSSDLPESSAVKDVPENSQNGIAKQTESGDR

B1: OsSPX2 promoter P1BS probe (dsDNA)
DNA 1: TATCCCCGTCACGAATATTCCTCTTCCTCC
DNA 2: GGAGGAAGAGGAATATTCGTGACGGGGATA
Turning to B1, the binding result was “binds”.
